The target in this test is TRAIL-R.

Regarding “TNF-related apoptosis-inducing ligand (TRAIL) (from UniProt P50591 1-281)”, the inhibition of specific lysis of Nalm6 cells by pDC-activated NK cells (5:1 E:T ratio) with a blocking anti-TRAIL antibody worked out at 50% and the inhibition of specific lysis of REH cells by pDC-activated NK cells (5:1 E:T ratio) with a blocking anti-TRAIL antibody worked out at 66%.

The values above are taken from publication PMC4745738.
